# Experimental data published in patent US12098164 (KOREA UNIVERSITY RESEARCH AND BUSINESS FOUNDATION, dated 2024).
# B1: hepatitis B virus capsid protein nanoparticles (HBVC) (other)
# chain: HHHHHHDIDPYKEFGASVELLSFLPSDFFPSIRDLLDTASALYREALESPEHCSPHHTALRQAILCWGELMNLATWVGSNLEDPASRELVVSYVNVNMGLKIRQLLWFHISCLTFGRETVLEYLVSFGVWIRTPPAYRPPNAPILSTLPETTVV
# notes: also called HBVC (aff-, ABP-)
# Target: human serum albumin (HSA) (human, UniProt P02768 25-609)
# Experiment: ELISA, HSA coated at 2 ug/ml, anti-His tag primary antibody and HRP secondary antibody, absorbance at 450 nm
# human serum albumin (HSA), sequence (P02768 25-609 limits assumed): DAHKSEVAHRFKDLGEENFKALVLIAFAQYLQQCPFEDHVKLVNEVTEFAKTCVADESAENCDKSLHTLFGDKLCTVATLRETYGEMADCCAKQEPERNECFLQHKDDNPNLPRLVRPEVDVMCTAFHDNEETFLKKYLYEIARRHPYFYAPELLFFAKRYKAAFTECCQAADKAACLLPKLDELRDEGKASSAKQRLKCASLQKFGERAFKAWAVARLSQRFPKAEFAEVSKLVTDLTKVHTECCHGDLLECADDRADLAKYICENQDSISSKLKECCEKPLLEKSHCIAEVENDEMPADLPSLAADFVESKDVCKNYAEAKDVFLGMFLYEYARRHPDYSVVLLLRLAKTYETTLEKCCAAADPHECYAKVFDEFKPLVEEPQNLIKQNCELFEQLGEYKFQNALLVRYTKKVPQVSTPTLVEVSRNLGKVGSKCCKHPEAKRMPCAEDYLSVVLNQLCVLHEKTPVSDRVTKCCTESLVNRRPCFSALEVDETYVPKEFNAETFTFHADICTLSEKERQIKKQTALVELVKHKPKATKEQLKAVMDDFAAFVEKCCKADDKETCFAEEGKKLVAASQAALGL
binder,measurement,value
B1,binding result,no binding (tested: 0.001 to 1.5 mg/ml tested)
